B1: CPEB3 Ribozyme (parent)
chain: UAACAGGGGGCCACAGCAGAAGCGUUCACGUCGCAGCCCCUGUCAGAUUCUGGUGAAUCUGCGAAUUCUGCUGUAUAUCUC

Variants of: B1
Experiment: self-cleavage, relative activity (ratio to wild type); higher = more cleavage; in vitro, sequencing
Procedure, shortened: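 Barcoded CPEB3 ribozyme mutants, produced by rounds of error-prone PCR, self-cleaved while being transcribed with T7 RNA polymerase for 5 hours at 37°C and during a subsequent 15 min DNase I step before EDTA was added. Sequencing of template-switched cDNA on Illumina gave cleaved and total reads, and DNA sequencing assigned barcodes to variants. Each variant's relative activity is its cleaved/total read fraction divided by the unmutated ribozyme's fraction, averaged across three batches. A variant needed a minimum of 5 reads.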

| Variant | self-cleavage |
| --- | --- |
| U49C C79U | 0.76 |
| U48C A75U | 0.71 |
| U48C A75G | 0.43 |
| U48C A75C | 1.07 |
| A47U U76A | 0.82 |
| A47U U76C | 0.59 |
| U48C C71U | 0.32 |
| U48C C71A | 0.49 |
| U49A G61C | 0.19 |
| U48G U78C | 0.59 |
| U49A U51A | 0.45 |
| U49A U51C | 0.66 |
| U49A G55A | 0.78 |
| U49A G55C | 0.62 |
| U48A C71A | 0.2 |
| U49A G63C | 0.88 |
| U49A G63U | 0.63 |
| U49A G63A | 0.69 |
| U48A A77G | 0.54 |
| U49C U60C | 0.22 |
| U49C U60G | 0.13 |

| Variant | self-cleavage |
| --- | --- |
| U49C U60A | 0.22 |
| U49C C59A | 0.09 |
| U49C C59U | 0.09 |
| A47U U49C | 0.46 |
| A47U U49A | 0.41 |
| U49C G70U | 0.2 |
| U49C G70A | 0.44 |
| U49A A75G | 0.39 |
| U49A A75U | 0.64 |
| U49A U76C | 0.69 |
| U49C A77U | 0.37 |
| U49C A77G | 0.45 |
| U49C C62U | 0.33 |
| U49C C62A | 0.17 |
| U49C C62G | 0.46 |
| U48G U54C | 0.19 |
| U48C U76A | 0.72 |
| U48C U76C | 0.67 |
| U48C A57C | 0.5 |
| U48C A57G | 1.11 |
| U48C A57U | 0.58 |

| Variant | self-cleavage |
| --- | --- |
| U48A U80A | 0.87 |
| U48A U80C | 0.57 |
| U48C U51A | 0.42 |
| U48C U51G | 0.33 |
| U48C U51C | 0.49 |
| U48A A57U | 1.09 |
| U48A A57G | 0.47 |
| U49G G63A | 0.28 |
| U48A U72A | 0.22 |
| U48A U72C | 0.45 |
| U48A U72G | 0.58 |
| U48A U66A | 0.36 |
| U48A U66C | 0.16 |
| U48A U66G | 0.43 |
| U48C C81U | 1 |
| U48C G61A | 0.33 |
| U48C G61C | 0.18 |
| U49A | 0.71 |
| U49G | 0.52 |
| U49C | 0.43 |
| U48G A56G | 0.28 |

| Variant | self-cleavage |
| --- | --- |
| U48C C68G | 0.18 |
| U48C C68A | 0.34 |
| U49A G70U | 0.24 |
| U49A G70A | 0.49 |
| U49A A65G | 0.29 |
| U49A A65C | 0.13 |
| U49A A65U | 0.47 |
| U48C U72C | 0.7 |
| U48C U72A | 0.4 |
| A47U U72C | 0.53 |
| A47U U72A | 0.35 |
| U49A U80A | 0.88 |
| U49A U80C | 0.69 |
| U49A U80G | 0.88 |
| U49C U54C | 0.38 |
| U49C U54A | 0.42 |
| U49C U54G | 0.25 |
| U49C G61C | 0.33 |
| U49C G61A | 0.19 |
| U48A C59A | 0.44 |
